# Laboratory results from US20240383983A1 (ABL BIO, published 2024).
# T1: human B7-H4 expressed on cells (CHOK-1 B7-H4, SK-BR3, CAMA-1, MDA-MB-468, MX-1, OVCAR-3) (human, UniProt Q7Z7D3 25-282)
# T1 construct: whole, on cells; also called B7-H4 expressed cell line; B7-H4 positive cancer cell lines
# T1 sequence (looked up): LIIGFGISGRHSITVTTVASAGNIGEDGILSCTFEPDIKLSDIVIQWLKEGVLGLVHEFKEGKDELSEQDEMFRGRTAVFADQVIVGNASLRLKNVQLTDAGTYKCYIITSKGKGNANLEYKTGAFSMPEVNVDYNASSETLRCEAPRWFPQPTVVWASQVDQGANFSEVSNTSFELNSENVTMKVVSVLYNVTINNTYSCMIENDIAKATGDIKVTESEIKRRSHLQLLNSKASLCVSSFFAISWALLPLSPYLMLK
# T2: Fc fused human B7-H4 protein (human, UniProt Q7Z7D3 29-258, limits assumed)
# T2 construct: Coated on ELISA plates; not shown: Fc part
# T2 sequence (looked up): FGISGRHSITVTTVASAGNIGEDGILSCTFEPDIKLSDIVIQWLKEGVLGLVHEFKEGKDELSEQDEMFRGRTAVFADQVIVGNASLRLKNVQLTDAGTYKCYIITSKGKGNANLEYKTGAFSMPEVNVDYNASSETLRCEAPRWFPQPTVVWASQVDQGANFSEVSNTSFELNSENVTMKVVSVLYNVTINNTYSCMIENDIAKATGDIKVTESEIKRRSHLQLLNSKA
# B1: 16E3H3 M1 monospecific antibody (humanized anti-B7-H4 IgG1) (antibody, V domains shown)
# VH: QVQLVQSGAEVKKPGASVKVSCKASGYPFTTYGMNWVKQAPGQGLEWMGWIDTYSGVPTYADDFKGRVTMTRDTSISTAYMELSRLRSDDTAVYFCARRSFWYFDVWGAGTTVTVSS
# VL: DVVMTQSPLSLPVTLGQPASISCRSSQSLVHSNANTYLHWYLQRPGQSPRLLIYKVSNRFSGVPDRFSGSGSGTDFTLKISRVEAEDVGVYFCSQSTHVPWTFGGGTKVEIKR
# notes: Humanized 16E3H3 with G29A in CDR-L1 for PTM removal; also called M40413; 16E3H3 M1 clone
# Key:
# [1] = biological target: T1, human B7-H4 expressed on cells (CHOK-1 …); experiment: FACS on CAMA-1 cells, FITC anti-human IgG1 detection; y axis 'Fold of induction'
# Procedure: (§1) To evaluate the tumor antigen binding property, 16E3H3 M1 clone was analyzed for its binding to B7-H4-expressing mammalian cells by FACS. Briefly, B7-H4 positive cell (MX-1, CAMA-1, SK-BR3 and OVCAR-3) or B7-H4 negative cells (PANC-1) were incubated with M40413 antibody. After wash by FACS buffer (1% BSA in PBS), the FITC-anti-human IgG 1 antibody was added to each well and incubated at 4° C. for 45 min. The MFI of FITC was evaluated by FACS Calibur.
# [2] = biological target: T2, Fc fused human B7-H4 protein; experiment: ELISA, Fc fused human B7-H4 coated at 1 µg/ml, anti-human Fab HRP
# Procedure: To evaluate the antigen binding activity of the humanized antibody, 16E3H3 M1 was subjected to ELISA. Briefly, ELISA plates were coated with Fc fused human B7-H4 protein at 1 μg/ml in PBS, 100 ul/well at 4° C. overnight, then blocked with 200 ul/well of 1% BSA in PBS at 37° C. Four fold dilutions of monoclonal antibody starting from 100 nM were added to each well and incubated for 1 hours at 37° C. The plates were washed with PBST (0.05% Tween 20 in PBS) and then incubated with HRP (Horse Radish Peroxidase) conjugated Anti-human Fab for 1 hr at 37° C. The plates were washed with PBST (Tween 20 0.05% in PBS) developed with TMB substrate and analyzed by spectrophotometer at OD 450 nm˜650 nm. As shown FIG. 2. 16E3H3 M1 bound to human B7-H4 with dose dependent manner.
# [3] = biological target: T1, human B7-H4 expressed on cells (CHOK-1 …); experiment: FACS on SK-BR3 cells, FITC anti-human IgG1 detection; y axis 'Fold of induction'
# Procedure: as §1
binder,measurement,setting,value
B1,EC50 (read off the curve),[1],~5 nM
same,EC50,[2],0.079 nM
same,EC50 (read off the curve),[3],~4 nM
